This is an account of results in patent publication US20200138870A1, “RECREATION OF PANCREATIC NICHE ALLOWS FOR NOVEL METHODS FOR HUMAN, MATURE BETA DERIVATION FROM PLURIPOTENT STEM CELLS” (Baylor College of Medicine, priority 2016, published 2020).

This assay deals with hESC-derived EPs. Kind of assay: Growth factor treatment of hESC-derived EPs for 3 days, immunofluorescence quantification of marker-positive cells. Format: cell-based, human. Particulars: for increase in number of ISL1+ cells: high concentration treatment; for INS+ cell numbers (in words): two concentrations. How it is done:
hESC, ISL1-EGFP Hues8 and H1, were maintained under a feeder-free system on Geltrex (Invitrogen) in TeSR-E8 media (Stemcell Technologies). Cells were passaged at 70-80% confluence using TrypLE (Invitrogen). After dissociation, cells were seeded in TeSR-E8 media+10 μM Y-27632 for 24h. Differentiation was started when cells were 90% confluent. The following media and growth factors/small molecules (see also Table 3) were used: Day1: MCDB-131 media with 0.1% BSA+10 mM glucose+ActivinA and CHIR99021. Day2-3: MCDB-131 media+0.1% BSA+10 mM glucose+ActivinA. Day4-5: MCDB-131+0.1% BSA, 10 mM glucose, VitC+KGF. Day6-9: MCDB-131 2% BSA+5.5 mM glucose+Vit.C+ITS (Invitrogen)+ActivinA+KGF+RA+SANT-1+Noggin. Day10-12: MCDB-131+2% BSA+5.5 mM glucose+VitC+ITS+SANT-1+Noggin+PdBU. Day13-15: MCDB-131+2% BSA+5.5 mM glucose+VitC+ITS+Noggin+AlK5i. EPs were dissociated and seeded as 25,000 cells/well on Geltrex-coated 96-well plates in DMEM media (Invitrogen) with B27 Supplement (Thermo Fisher Scientific), later called B27 media, supplemented with 10 µM Y-27632 for 24h. Growth factors (Table 3) were added to B27 media, at two concentrations, and tested on EPs for 3 days. After 3 days, cells were PBS washed, fixed with 4% PFA/PBS for 20 min at room temperature (RT), washed twice with PBS and stained.
Cells were incubated with 5% donkey serum (Jackson ImmunoResearch Laboratories) in PBST (PBS+0.1% Triton-X) for 30 min to avoid nonspecific binding of the antibody and to permeabilize the cells. Primary antibodies, diluted in 5% donkey serum in PBST, were then added and incubated at 4° C. overnight with shaking. After primary antibody incubation, cells were washed 3 times with PBST and secondary antibodies conjugated with Alexa-Fluor Dyes (Jackson ImmunoResearch Laboratories) and diluted in 5% donkey serum in PBST were added to the cells for 30 min at RT. Then, cells were thrice washed with PBST and nuclei were stained with Dapi (Roche Diagnostics). For imaging, Leica DMI6000 or confocal Leica TCS SPE was used. Images were initially processed by LAS X software and then further analyzed and quantified using ImageJ software (NIH, W Rasband, http://rsb.info.nih.gov/ij) using cell counter plug-in. Typically, at least 5 randomly selected images were counted per condition.

The mark [1] stands for this setting: 200 ng/ml Gremlin1, 3 days, vs untreated.

For “HGF: growth factor (R&D), 50 or 100 ng/ml”, the “effect on the number of CHGA+ and INS+ cells (in words)” value (“effect on the number” below) (3 days treatment of EPs) is recorded as “little or no effect”. Under “3 days”, the “increase in number of ISL1+ cells” value is reported as roughly 2 fold.
In the case of “IGF: growth factor (R&D), 10 or 50 ng/ml”, where the note is “3 days treatment of EPs”, the “effect on the number” value is “little or no effect”. In addition, under “3 days”, the “increase in number of ISL1+ cells” value is reported as roughly 2 fold.
“THBS2: growth factor (R&D), 5 or 1 μg/ml”: the “effect on the number” value (3 days treatment of EPs) is reported as “little or no effect”. Besides, the “increase in number of ISL1+ cells” value (3 days) is reported as roughly 2 fold.

B1: WNT5B: a WNT5A paralog (protein, UniProt Q9H1J7 18-359, looked up)
Protein Wnt-5b: QLLTDANSWWSLALNPVQRPEMFIIGAQPVCSQLPGLSPGQRKLCQLYQEHMAYIGEGAKTGIKECQHQFRQRRWNCSTADNASVFGRVMQIGSRETAFTHAVSAAGVVNAISRACREGELSTCGCSRTARPKDLPRDWLWGGCGDNVEYGYRFAKEFVDAREREKNFAKGSEEQGRVLMNLQNNEAGRRAVYKMADVACKCHGVSGSCSLKTCWLQLAEFRKVGDRLKEKYDSAAAMRVTRKGRLELVNSRFTQPTPEDLVYVDPSPDYCLRNESTGSLGTQGRLCNKTSEGMDGCELMCCGRGYNQFKSVQVERCHCKFHWCCFVRCKKCTEIVDQYICK
On to B1, for which the “INS+ cell numbers (in words)” value (3 days treatment of EPs) was “increased INS+ cell numbers in a dose-dependent manner”.

B2: Gremlin1: a BMP antagonist upregulated in Wk17.5h and 20.1 M-E primary cells (protein, UniProt O60565 25-184, looked up)
Gremlin-1: KKKGSQGAIPPPDKAQHNDSEQTQSPQQPGSRNRGRGQGRGTAMPGEEVLESSQEALHVTERKYLKRDWCKTQPLKQTIHEEGCNSRTIINRFCYGQCNSFYIPRHIRKEEGSFQSCSFCKPKKFTTMMVTLNCPELQPPTKKKRVTRVKQCRCISIDLD
On to B2, for which, under setting [1], the “increase in CHGA+ cell numbers” value is 5 fold and the “increase in INS+ cell numbers” value was 5 fold. Besides, the “decrease in the number of GCG+ cells” value (3-day EP treatment, vs untreated control) was 3 fold.

B3: PDPN: podoplanin, a mucin-type transmembrane glycoprotein (protein, UniProt Q86YL7 23-162, looked up)
Podoplanin: ASTGQPEDDTETTGLEGGVAMPGAEDDVVTPGTSEDRYKSGLTTLVATSVNSVTGIRIEDLPTSESTVHAQEQSPSATASNVATSHSTEKVDGDTQTTVEKDGLSTVTLVGIIVGVLLAIGFIGAIIVVVMRKMSGRYSP
Consider B3, for which the “numbers of ISL1-eGFP, CHGA+, INS+ and C-peptide+ cells over untreated controls (in words)” value (from here on “numbers … over untreated controls (in words)”) (3 days treatment of EPs) was “increased”. Also, under “high concentration, 3 days”, the “increase in number of CHGA+ cells” value amounted to 3 fold and the “increase in number of INS+ cells” value was 3 fold.

B4: SERPINF1: niche-derived secreted factor (R&D), 500 ng/ml or 1 μg/ml (protein, UniProt P36955 20-418, looked up)
Pigment epithelium-derived …: QNPASPPEEGSPDPDSTGALVEEEDPFFKVPVNKLAAAVSNFGYDLYRVRSSTSPTTNVLLSPLSVATALSALSLGAEQRTESIIHRALYYDLISSPDIHGTYKELLDTVTAPQKNLKSASRIVFEKKLRIKSSFVAPLEKSYGTRPRVLTGNPRLDLQEINNWVQAQMKGKLARSTKEIPDEISILLLGVAHFKGQWVTKFDSRKTSLEDFYLDEERTVRVPMMSDPKAVLRYGLDSDLSCKIAQLPLTGSMSIIFFLPLKVTQNLTLIEESLTSEFIHDIDRELKTVQAVLTVPKLKLSYEGEVTKSLQEMKLQSLFDSPDFSKITGKPIKLTQVEHRAGFEWNEDGAGTTPSPGLQPAHLTFPLDYHLNQPFIFVLRDTDTGALLFIGKILDPRGP
Regarding B4, the “numbers … over untreated controls (in words)” value (3 days treatment of EPs) is given as “increased”.

B5: Endocan: niche-derived secreted factor (R&D), 1 or 5 ng/ml (protein, UniProt Q9NQ30 20-184, looked up)
Endothelial cell-specific …: WSNNYAVDCPQHCDSSECKSSPRCKRTVLDDCGCCRVCAAGRGETCYRTVSGMDGMKCGPGLRCQPSNGEDPFGEEFGICKDCPYGTFGMDCRETCNCQSGICDRGTGKCLKFPFFQYSVTKSSNRFVSLTEHDMASGDGNIVREEVVKENAAGSPVMRKWLNPR
On to B5, for which, for the setting “3 days treatment of EPs”, the “number of CHGA+ cells (in words)” value is given as “significant increase”; the “numbers … over untreated controls (in words)” value is reported as “increased”; the “INS+ cell numbers (in words)” value is listed as “moderate effect”.
